The source of these data is patent US20240002331A1 (TIDAL THERAPEUTICS, published 2024).

In experiment [1] the target is mouse CD8 on primary murine T-cells (murine) (UniProt P01731). Nature of the experiment: in vivo, DiI-labelled targeted LNPs injected i.v. in BALB/c mice, flow cytometry of blood 24 hours after injection; untargeted LNPs <2%.
Experiment [2] has as its target mouse CD4 on primary murine T-cells (murine) (UniProt P06332). Nature of the experiment: in vivo, DiI-labelled targeted LNPs injected i.v. in BALB/c mice, flow cytometry of blood 24 hours after injection; untargeted LNPs ˜2%. Background: A flow cytometer gives signals particle by particle.
Experiment [3] concerns the target T1, CD20 on Raji (B-cell) cells (UniProt P11836 1-297, limits assumed).
T1 sequence (looked up): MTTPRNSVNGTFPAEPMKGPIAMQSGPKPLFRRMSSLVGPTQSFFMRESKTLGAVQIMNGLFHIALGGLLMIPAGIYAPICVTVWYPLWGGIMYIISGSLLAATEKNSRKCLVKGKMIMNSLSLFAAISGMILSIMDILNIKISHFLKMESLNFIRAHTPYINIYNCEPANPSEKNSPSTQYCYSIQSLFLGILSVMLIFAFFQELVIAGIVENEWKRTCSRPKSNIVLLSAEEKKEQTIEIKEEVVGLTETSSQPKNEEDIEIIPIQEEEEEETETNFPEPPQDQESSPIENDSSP
Nature of the experiment: cell-based or functional assay.

In experiment [4] the target is T2, human CD2 on primary human T-cells (human, UniProt P06729 25-351).
T2 construct: whole, on cells
T2 sequence (looked up): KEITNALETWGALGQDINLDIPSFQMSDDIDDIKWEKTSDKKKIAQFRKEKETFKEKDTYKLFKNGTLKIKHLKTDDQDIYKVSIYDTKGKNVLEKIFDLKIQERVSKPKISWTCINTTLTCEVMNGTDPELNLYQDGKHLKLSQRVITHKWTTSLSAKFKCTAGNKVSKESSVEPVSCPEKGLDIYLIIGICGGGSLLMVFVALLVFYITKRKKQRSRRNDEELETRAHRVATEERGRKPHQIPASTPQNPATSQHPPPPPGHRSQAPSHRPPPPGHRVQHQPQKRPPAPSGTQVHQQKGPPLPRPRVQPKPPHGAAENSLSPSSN
The experiment is described as follows: DiI-labelled LNP with inserted Fab conjugate on primary human CD3+ T cells, flow cytometry.

Experiment [5] concerns the target T3, human CD7 on primary human T-cells (human, UniProt P09564 26-240).
T3 construct: whole, on cells
T3 sequence (looked up): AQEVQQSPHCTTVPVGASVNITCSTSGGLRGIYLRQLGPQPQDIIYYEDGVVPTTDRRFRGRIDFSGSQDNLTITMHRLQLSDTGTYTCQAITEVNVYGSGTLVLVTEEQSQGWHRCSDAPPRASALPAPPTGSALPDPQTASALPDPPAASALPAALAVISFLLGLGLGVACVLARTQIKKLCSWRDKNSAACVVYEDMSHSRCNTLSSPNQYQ
The experiment is described as follows: DiI-labelled LNP with inserted Nb conjugate on primary human CD3+ T cells, flow cytometry.

In experiment [6] the target is T4, human CD8 on primary human cells (CD8 T-cells, NK-cells) (human, UniProt P01732 22-235).
T4 construct: whole, on cells; also called CD8 receptor
T4 sequence (P01732 22-235): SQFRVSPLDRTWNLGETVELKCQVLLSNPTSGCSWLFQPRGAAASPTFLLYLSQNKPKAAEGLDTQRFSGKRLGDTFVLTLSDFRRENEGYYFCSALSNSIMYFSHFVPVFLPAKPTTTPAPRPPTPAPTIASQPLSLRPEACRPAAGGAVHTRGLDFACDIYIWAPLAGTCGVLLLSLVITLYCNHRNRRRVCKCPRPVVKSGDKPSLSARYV
The experiment is described as follows: DiI-labelled LNP with inserted Fab conjugate, human whole blood, 24 h, flow cytometry (% DiI+ and DiI MFI) on CD4 and CD8 T-cells.

mouse CD4 on primary murine T-cells (murine), sequence (P06332 27-457): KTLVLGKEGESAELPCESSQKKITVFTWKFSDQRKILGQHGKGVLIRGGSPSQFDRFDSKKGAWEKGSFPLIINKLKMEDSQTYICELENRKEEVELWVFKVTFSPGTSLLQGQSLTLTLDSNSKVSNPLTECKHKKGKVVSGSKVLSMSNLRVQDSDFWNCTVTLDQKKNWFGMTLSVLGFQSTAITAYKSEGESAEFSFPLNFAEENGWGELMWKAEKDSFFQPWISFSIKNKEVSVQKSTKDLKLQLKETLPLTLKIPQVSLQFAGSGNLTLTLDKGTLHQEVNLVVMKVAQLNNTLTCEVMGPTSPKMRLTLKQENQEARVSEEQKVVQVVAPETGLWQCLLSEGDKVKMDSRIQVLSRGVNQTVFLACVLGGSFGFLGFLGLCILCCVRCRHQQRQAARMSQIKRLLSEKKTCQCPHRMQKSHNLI
mouse CD8 on primary murine T-cells (murine), sequence (P01731 28-247): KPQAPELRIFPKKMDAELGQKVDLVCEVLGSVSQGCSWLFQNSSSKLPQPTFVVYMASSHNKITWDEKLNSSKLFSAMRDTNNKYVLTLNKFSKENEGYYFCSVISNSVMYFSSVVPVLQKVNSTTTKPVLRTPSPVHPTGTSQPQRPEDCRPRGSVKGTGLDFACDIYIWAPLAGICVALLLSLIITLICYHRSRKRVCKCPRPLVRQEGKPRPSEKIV

“anti-mouse CD8 Fab YTS156.7.7, inserted in LNPs” had a % of CD3+CD8+ T-cells in the blood with LNP-association (DiI+) in experiment [1] of 78%. The molecule “anti-mouse CD4 Fab GK1.5, inserted in LNPs” yielded a % of the CD3+CD4+ cell population DiI-positive in experiment [2] of 67%.

B1: TTR-023 anti-CD20 (Leu-16) CAR (other)
chain: DYKAKEVQLQQSGAELVKPGASVKMSCKASGYTFTSYNMHWVKQTPGQGLEWIGAIYPGNGDTSYNQKFKGKATLTADKSSSTAYMQLSSLTSEDSADYYCARSNYYGSSYWFFDVWGAGTTVTVSSGGGSGGGSGGGGSSDIVLTQSPAILSASPGEKVTMTCRASSSVNYMDWYQKKPGSSPKPWIYATSNLASGVPARFSGSGSGTSYSLTISRVEAEDAATYYCQQWSFNPPTFGGGTKLEIKGGGGSAAAIEVMYPPPYLDNEKSNGTIIHVKGKHLCPSPLFPGPSKPFWVLVVVGGVLACYSLLVTVAFIIFWVRSKRSRLLHSDYMNMTPRRPGPTRKHYQPYAPPRDFAAYRSRVKFSRSAEPPAYQQGQNQLYNELNLGRREEYDVLDKRRGRDPEMGGKPRRKNPQEGLYNELQKDKMAEAYSEIGMKGERRRGKGHDGLYQGLSTATKDTYDALHMQALPPR
In the case of B1, in experiment [3], the “% of dead Raji cells in co-culture with CAR-T cells (Lipid 9 or DLin-KC3-DMA LNPs), against mCherry transfected T-cells” value is 4 fold and the “% of dead Raji cells in co-culture with CAR-T cells (Lipid 15 or DLin-KC3-DMA LNPs), against mCherry transfected T-cells” value is 4 fold.

B2: anti-CD2 9.6 Fab NoDS, lipid conjugate (Fab, V domains shown)
VH: QVQLQQPGAELVRPGSSVKLSCKASGYTFTRYWIHWVKQRPIQGLEWIGNIDPSDSETHYNQKFKDKATLTVDKSSGTAYMQLSSLTSEDSAVYYCATEDLYYAMEYWGQGTSVTVSS
VL: NIMMTQSPSSLAVSAGEKVTMTCKSSQSVLYSSNQKNYLAWYQQKPGQSPKLLIYWASTRESGVPDRFTGSGSGTDFTLTISSVQPEDLAVYYCHQYLSSHTFGGGTKLEIKR
modifications: DSPE-PEG-maleimide coupled to the C-terminal cysteine in the heavy chain (methods of Example 4)
notes: Inserted in LNPs
In the case of B2, the binding result in experiment [4] is “binds”.

B3: Anti-CD7 V1 Nb, lipid conjugate (VHH)
VHH: DVQLQESGGGLVQAGGSLRLSCAVSGYPYSSYCMGWFRQAPGKEREGVAAIDSDGRTRYADSVKGRFTISQDNAKNTLYLQMNRMKPEDTAMYYCAARFGPMGCVDLSTLSFGHWGQGTQVTVSI
modifications: conjugated to DSPE-3.4K PEG-maleimide (the cysteine is not named in the example)
notes: The entry includes the C-terminal spacer, cysteine and His tag; Inserted in LNPs; also called αCD7
As to B3, the binding result in experiment [5] is recorded as “binds”.

B4: anti-CD2 TS2/18.1 Fab NoDS, lipid conjugate (Fab, V domains shown)
VH: EVQLVESGGGLVMPGGSLKLSCAASGFAFSSYDMSWVRQTPEKRLEWVAYISGGGFTYYPDTVKGRFTLSRDNAKNTLYLQMSSLKSEDTAMYYCARQGANWELVYWGQGTLVTVSA
VL: DIVMTQSPATLSVTPGDRVFLSCRASQSISDFLHWYQQKSHESPRLLIKYASQSISGIPSRFSGSGSGSDFTLSINSVEPEDVGVYFCQNGHNFPPTFGGGTKLEIKR
modifications: DSPE-PEG-maleimide coupled to the C-terminal cysteine in the heavy chain (methods of Example 4)
notes: Inserted in LNPs
As to B4, in experiment [4], the binding result is recorded as “binds”.

B5: mutOKT8-Fab (non-functional mutated OKT8), DSPE-PEG (2k) lipid conjugate (Fab, V domains shown)
VH: QVQLVQSGAEDKKPGASVKVSCKASGFNIKDTYIHWVRQAPGQGLEWMGRIDPANDNTLYASKFQGRVTITADTSSNTAYMELSSLRSEDTAVYYCGRGAGAYVFDHWGQGTTVTVSS
VL: DIVMTQSPSSLSASVGDRVTITCRTSRSISAALAWYQEKPGKAPKLLIYSGSTLQSGVPSRFSGSGSGTDFTLTISSLQPEDFATYYCQQHNENPLTFGQGTKVEIKR
modifications: DSPE-PEG (2k)-maleimide coupled to the C-terminal cysteine in the heavy chain (conjugated using similar methods as hSP34)
notes: Negative control, inserted in mRNA LNPs; also called muOKT8
In the case of B5, the binding result in experiment [6] is reported as “no binding”.
